In US20140242093A1, “METHODS AND COMPOSITIONS FOR MODULATING THE INNATE IMMUNE RESPONSE AND/OR MYOGENESIS IN A MAMMALIAN SUBJECT” (FRED HUTCHINSON CANCER RESEARCH CENTER, priority 2011, published 2014):

Tested on: control human primary myoblasts
Test: Expression microarray of primary myoblasts transduced with lentivirus carrying DUX4-fl, DUX4-s or GFP
Protocol: Primary human myoblasts were collected and cultured as previously described (Snider et al., 2010). Primary myoblasts were maintained at or below 70% confluency for proliferation. For differentiation, cells were allowed to reach 95-100% confluency in growth medium. Once confluency was reached, the cells were changed to differentiation medium (F10 media supplemented with 1% horse serum, 10 μg/mL insulin, and 10 μg/mL transferrin, penicillin/streptomycin) and maintained for 4 days. Human RD cells were grown in DMEM in 10% bovine calf serum (Hyclone) and penicillin/streptomycin. The primary myoblasts were transduced with lentivirus carrying DUX-fl, DUX4- or GFP (MOI=15).
Expression microarrays were performed on the transduced cells at 24 hours after transduction as follows. […] Samples were analyzed by Illumina Human Whole Genome microarrays. Probe intensities were corrected, normalized, and summarized by the Lumi package of Bioconductor (Du et al., 2008). Differentially expressed genes were identified by the LIMMA package of Bioconductor (Wettenhall and Smyth, 2004). Gene set enrichment analysis (GSEA) was performed using the Bioconductor GOstats package (Falcon and Gentleman, 2007).

[1] = 2-fold change and FDR<0.01 vs lenti-GFP, 24 hours after transduction
[2] = 3-fold criteria (>1.584 log2-fold change and FDR<0.01)

B1: DUX4-s: short splice form of DUX4 (SEQ ID NO:112), keeps the double-homeobox domains, lacks the C-terminal activation domain (protein, listed as Homo sapiens)
chain: MALPTPSDSTLPAEARGRGRRRRLVWTPSQSEALRACFERNPYPGIATRERLAQAIGIPEPRVQIWFQNERSRQLRQHRRESRPWPGRRGPPEGRRKRTAVTGSQTALLLRAFEKDRFPGIAAREELARETGLPESRIQIWFQNRRARHPGQGGRAPAQV
number of genes with decreased expression [1]: 45 genes | number of genes with increased expression [1]: 159 genes | number of genes decreased [2]: one | number of genes increased [2]: 37 genes | BQ437417 (no symbol given) expression fc (Refseq BQ437417, cultured human skeletal muscle): −0.126 | fc of ACVRL1 (expression array) (Refseq NM_000020.1): 0.06199 | fc of C3 (expression array) (Refseq NM_000064.1): 0.2479 | CA2 expression fc (Refseq NM_000067.1): 0.1046 | fc of COL1A1 (expression array) (Refseq NM_000088.3): −1.257 | CST3 fc (Refseq NM_000099.2): 0.1574 | ENG fc (Refseq NM_000118.1): 0.4927 | fc of GAMT (expression array) (Refseq NM_000156.4): −0.3529 | GBE1 fc (Refseq NM_000158.2): 0.4818 | fc of IDS (expression array) (Refseq NM_000202.3): 0.6655 | KCNA1 expression fc (Refseq NM_000217.2): 0.02842 | SGCG expression fc (Refseq NM_000231.1): 0.125 | NP expression fc (Refseq NM_000270.1): 0.2279 | fc of PTEN (expression array) (Refseq NM_000314.4): −0.3029 | SLC3A1 expression fc (Refseq NM_000341.2): 0.003792 | SOX9 expression fc (Refseq NM_000346.2): −0.3086 | fc of PAFAH1B1 (expression array) (Refseq NM_000430.2): −1.237 | HBA2 expression fc (Refseq NM_000517.3): 0.09333 | fc of HBB (expression array) (Refseq NM_000518.4): 1.196 | HBA1 expression fc (Refseq NM_000558.3): 0.08066 | IL8 expression fc (Refseq NM_000584.2, cultured human skeletal muscle): 1.186 | fc of IL15 (expression array) (Refseq NM_000585.2): −0.1029 | TAP1 expression fc (Refseq NM_000593.5, cultured human skeletal muscle): 0.6996 | fc of IL6 (expression array) (Refseq NM_000600.1): 1.198 | IL10RB fc (Refseq NM_000628.3): −0.05056 | fc of ALDH2 (expression array) (Refseq NM_000690.2): 0.2053 | fc of ANXA1 (expression array) (Refseq NM_000700.1): 0.08537 | fc of CYP2J2 (expression array) (Refseq NM_000775.2): 1.127 | fc of GAS6 (expression array) (Refseq NM_000820.1): −0.3187 | fc of MME (expression array) (Refseq NM_000902.3): −0.184 | P4HB fc (Refseq NM_000918.3): −0.1927 | PTGFR fc (Refseq NM_000959.3): 0.1496 | TOP2A fc (Refseq NM_001067.2): −0.6065 | TYMS fc (Refseq NM_001071.1): −0.09199 | VCAM1 expression fc (Refseq NM_001078.2, cultured human skeletal muscle): 0.6349 | ALOX15B fc (Refseq NM_001141.2): 0.4518 | ANPEP expression fc (Refseq NM_001150.1, cultured human skeletal muscle): 0.3635 | ART3 expression fc (Refseq NM_001179.3): 0.09073 | CA12 expression fc (Refseq NM_001218.3, cultured human skeletal muscle): 0.954 | fc of CASP4 (expression array) (Refseq NM_001225.3): 0.6908 | CD68 fc (Refseq NM_001251.1): 1.175 | CLIC1 fc (Refseq NM_001288.4): 0.3089 | CXADR expression fc (Refseq NM_001338.3): −0.07005 | DPYSL2 fc (Refseq NM_001386.4): 0.2285 | EMP3 fc (Refseq NM_001425.1): −0.2096 | FLT3LG fc (Refseq NM_001459.2): 0.3873 | CXCL1 expression fc (Refseq NM_001511.1, cultured human skeletal muscle): 0.2028 | fc of HAS1 (expression array) (Refseq NM_001523.1): 0.217 | PRMT2 fc (Refseq NM_001535.2): 0.07412 | NDST1 fc (Refseq NM_001543.3): −0.6912 | IFIT2 expression fc (Refseq NM_001547.4, cultured human skeletal muscle): 2.07 | IFIT1 expression fc (Refseq NM_001548.3, cultured human skeletal muscle): 0.7206 | IFIT3 expression fc (Refseq NM_001549.2, cultured human skeletal muscle): 1.806 | IFRD1 expression fc (Refseq NM_001550.2): −0.192 | IGFBP4 expression fc (Refseq NM_001552.2, cultured human skeletal muscle): 0.4048 | fc of CXCL10 (expression array) (Refseq NM_001565.2): 3.235 | AARS fc (Refseq NM_001605.2): 0.2776 | ACP2 fc (Refseq NM_001610.1): 0.2225 | TRIM23 expression fc (Refseq NM_001656.3): 0.6303 | ARSD fc (Refseq NM_001669.2): −0.2052 | fc of AUH (expression array) (Refseq NM_001698.1): 0.1604 | CFB expression fc (Refseq NM_001710.4, cultured human skeletal muscle): 0.6337 | C1R expression fc (Refseq NM_001733.4, cultured human skeletal muscle): 0.4933 | CAV1 fc (Refseq NM_001753.3): −0.1911 | fc of RUNX1 (expression array) (Refseq NM_001754.3): −1.047 | fc of CCND2 (expression array) (Refseq NM_001759.2): −0.5282 | CD9 expression fc (Refseq NM_001769.2): −0.004788 | CDH11 fc (Refseq NM_001797.2): 0.2419 | HBEGF expression fc (Refseq NM_001945.1): −0.07673 | ECGF1 expression fc (Refseq NM_001953.2, cultured human skeletal muscle): 0.6156 | EGR1 expression fc (Refseq NM_001964.2): 0.02651 | ETV6 fc (Refseq NM_001987.4): −0.05533 | EYA3 expression fc (Refseq NM_001990.2): −0.01672 | fc of ACSL1 (expression array) (Refseq NM_001995.2): 0.147 | FES fc (Refseq NM_002005.2): −0.3314 | FTH1 expression fc (Refseq NM_002032.2, cultured human skeletal muscle): −0.4183 | GTF2F1 expression fc (Refseq NM_002096.1): 0.29 | HLA-A fc (Refseq NM_002116.5): 0.5577 | HMOX1 expression fc (Refseq NM_002133.1, cultured human skeletal muscle): 0.9838 | HOXB2 expression fc (Refseq NM_002145.3): −0.04069 | HSPA6 expression fc (Refseq NM_002155.3): 0.128 | ID2 expression fc (Refseq NM_002166.4): 0.2756 | fc of IFNB1 (expression array) (Refseq NM_002176.2): 1.044 | INSM1 expression fc (Refseq NM_002196.2): 0.2306 | IRF1 expression fc (Refseq NM_002198.1, cultured human skeletal muscle): 0.3563 | ISG20 expression fc (Refseq NM_002201.4, cultured human skeletal muscle): 2.357 | fc of ITGA3 (expression array) (Refseq NM_002204.1): 0.1268 | fc of JUNB (expression array) (Refseq NM_002229.2): 0.5152 | JUP expression fc (Refseq NM_002230.1): −0.1057 | KPNA2 expression fc (Refseq NM_002266.2): −0.5075 | fc of LAMC1 (expression array) (Refseq NM_002293.2): −1.061 | fc of LSS (expression array) (Refseq NM_002340.3): −0.007301 | LTBR fc (Refseq NM_002342.1): 0.4061 | LUM fc (Refseq NM_002345.3): 0.3869 | LY6E expression fc (Refseq NM_002346.1, cultured human skeletal muscle): 0.2484 | fc of MDM2 (expression array) (Refseq NM_002392.2): 1.078 | MX1 expression fc (Refseq NM_002462.2, cultured human skeletal muscle): 0.2624 | MX2 expression fc (Refseq NM_002463.1, cultured human skeletal muscle): 0.9576 | fc of MYF6 (expression array) (Refseq NM_002469.1): −0.0236 | MYOD1 fc (Refseq NM_002478.4): −0.462 | NFYA expression fc (Refseq NM_002505.3): 0.9153 | OAS2 expression fc (Refseq NM_002535.2, cultured human skeletal muscle): 0.4553 | ODC1 expression fc (Refseq NM_002539.1): −0.2008 | PDE4B fc (Refseq NM_002600.3): 0.6757 | PFKP fc (Refseq NM_002627.3): 0.7759 | PIM1 expression fc (Refseq NM_002648.2): −0.6756 | EXOSC10 expression fc (Refseq NM_002685.2): 0.2771 | PNN expression fc (Refseq NM_002687.3): 0.04413 | PRKD1 fc (Refseq NM_002742.2): −0.6085 | PSMB9 expression fc (Refseq NM_002800.4, cultured human skeletal muscle): 0.9451 | PTX3 expression fc (Refseq NM_002852.2, cultured human skeletal muscle): 0.9442 | PYGB expression fc (Refseq NM_002862.3, cultured human skeletal muscle): −0.118 | fc of RAB13 (expression array) (Refseq NM_002870.2): 0.3496 | fc of RBMS1 (expression array) (Refseq NM_002897.3): 1.104 | fc of RBMS2 (expression array) (Refseq NM_002898.2): 1.448 | RXRA fc (Refseq NM_002957.3): −0.3202 | CCL2 expression fc (Refseq NM_002982.3, cultured human skeletal muscle): 0.4355 | CCL5 expression fc (Refseq NM_002985.2, cultured human skeletal muscle): 1.889 | CXCL6 expression fc (Refseq NM_002993.2, cultured human skeletal muscle): 0.1728 | CXCL5 expression fc (Refseq NM_002994.3, cultured human skeletal muscle): 0.824 | SLC2A5 expression fc (Refseq NM_003039.1, cultured human skeletal muscle): 0.8141 | SLC22A4 fc (Refseq NM_003059.2): 0.3817 | SNAI2 expression fc (Refseq NM_003068.3, cultured human skeletal muscle): 0.2027 | fc of SMARCD3 (expression array) (Refseq NM_003078.3): −0.3421 | SNRNP70 expression fc (Refseq NM_003089.4): 0.01776 | SOX4 expression fc (Refseq NM_003107.2): −0.2174 | SPG7 fc (Refseq NM_003119.2): −0.2796 | SRP19 expression fc (Refseq NM_003135.1): 0.227 | fc of STRN (expression array) (Refseq NM_003162.2): 1.092 | THBS1 fc (Refseq NM_003246.2): −0.5659 | UBA7 expression fc (Refseq NM_003335.2, cultured human skeletal muscle): 0.5729 | fc of UGCG (expression array) (Refseq NM_003358.1): 1.447 | WEE1 fc (Refseq NM_003390.2): 0.3325 | WNT5A fc (Refseq NM_003392.3): −0.3993
